Assay results: US20220153832A1 (PIONYR IMMUNOTHERAPEUTICS, published 2022)
Values belong to the binder of their own block, whether it stands above or below them.

Assays:
[1] = molecular target: T1, N-terminally polyhistidine tagged human MARCO ECD (147-520), recombinant (human, UniProt Q9UEW3 147-520); assay: Biacore; sample oxidized with 1.5% H2O2 (24 hr, RT)
T1 construct: also called PI-RG-3000; recombinant human MARCO; not shown: N-terminal polyhistidine tag
T1 sequence: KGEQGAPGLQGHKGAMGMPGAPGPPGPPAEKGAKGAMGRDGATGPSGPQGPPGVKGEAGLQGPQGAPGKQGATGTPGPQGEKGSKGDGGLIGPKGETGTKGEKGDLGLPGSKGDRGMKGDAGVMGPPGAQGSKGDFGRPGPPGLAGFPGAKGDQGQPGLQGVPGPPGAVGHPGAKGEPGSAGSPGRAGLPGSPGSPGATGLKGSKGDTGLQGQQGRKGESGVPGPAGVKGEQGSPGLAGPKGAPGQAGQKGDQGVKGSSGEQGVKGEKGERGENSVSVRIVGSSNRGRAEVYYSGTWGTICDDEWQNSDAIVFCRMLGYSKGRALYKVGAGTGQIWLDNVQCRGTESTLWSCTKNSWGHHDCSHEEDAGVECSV
Method: (PBS)+1 mM AAPH for 6 h, 0.5 and 1.5% H₂O₂ in PBS for 24 h, which was compared to a previous experiment at 40° C. (PBS)+1 mM AAPH for 6 h. Post treatment the samples were analyzed by LC-MS/MS which identified the % modification on isolated peptides derived from the antibody after trypsin digest.
Binding of the stressed samples to recombinant human MARCO was assessed by Biacore.

[2] = molecular target: T2, recombinant cynomolgus MARCO protein (cynomolgus, UniProt A0A2K5X0Z2 65-519); assay: Biacore (SPR), recombinant cyno MARCO
T2 construct: Construct not described; also called cyno MARCO; cynoMARCO
T2 sequence: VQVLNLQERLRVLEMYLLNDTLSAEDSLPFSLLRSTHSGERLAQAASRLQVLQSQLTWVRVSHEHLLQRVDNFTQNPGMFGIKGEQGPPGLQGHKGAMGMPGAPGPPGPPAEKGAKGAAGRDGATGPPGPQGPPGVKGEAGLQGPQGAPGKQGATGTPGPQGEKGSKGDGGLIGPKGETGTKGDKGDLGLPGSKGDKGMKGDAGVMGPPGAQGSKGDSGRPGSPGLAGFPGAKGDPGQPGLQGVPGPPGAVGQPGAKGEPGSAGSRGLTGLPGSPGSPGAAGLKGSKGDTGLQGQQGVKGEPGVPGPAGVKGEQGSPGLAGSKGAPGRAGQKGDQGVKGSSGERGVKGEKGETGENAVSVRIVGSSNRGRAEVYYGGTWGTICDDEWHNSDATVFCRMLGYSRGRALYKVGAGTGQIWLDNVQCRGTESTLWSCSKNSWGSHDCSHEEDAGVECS

[3] = molecular target: T1, N-terminally polyhistidine tagged human …; assay: Biacore, recombinant human MARCO; control sample
[4] = molecular target: T1, N-terminally polyhistidine tagged human …; assay: ELISA readout A450-A620; the panel names no target, the legend says MARCO expressing cells; transiently made reference antibody
[5] = molecular target: T3, Cynomolgus MARCO, full length, on cells (cynomolgus, UniProt A0A2K5X0Z2 1-519); assay: flow cytometry, cells overexpressing cyno MARCO; cyn (second of hu/cyn)
T3 construct: whole, on cells; also called cyno MARCO; CyMARCO
T3 sequence: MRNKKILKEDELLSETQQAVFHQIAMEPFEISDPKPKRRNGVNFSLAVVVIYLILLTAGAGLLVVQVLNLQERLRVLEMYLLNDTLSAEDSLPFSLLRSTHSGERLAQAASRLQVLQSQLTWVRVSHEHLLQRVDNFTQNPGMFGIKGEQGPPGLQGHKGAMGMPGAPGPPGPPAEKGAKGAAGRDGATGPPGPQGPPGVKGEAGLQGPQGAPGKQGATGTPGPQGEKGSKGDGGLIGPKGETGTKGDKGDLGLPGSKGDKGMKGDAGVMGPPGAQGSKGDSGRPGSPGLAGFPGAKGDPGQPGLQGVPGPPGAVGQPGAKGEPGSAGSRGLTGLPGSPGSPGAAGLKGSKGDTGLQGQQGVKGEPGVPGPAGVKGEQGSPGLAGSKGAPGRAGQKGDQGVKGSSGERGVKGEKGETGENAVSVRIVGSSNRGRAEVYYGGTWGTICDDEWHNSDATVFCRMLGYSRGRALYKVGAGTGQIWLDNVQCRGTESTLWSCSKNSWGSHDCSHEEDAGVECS

[6] = molecular target: T1, N-terminally polyhistidine tagged human …; assay: Biacore (SPR), binding affinity to human MARCO
In short: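 On a CM4 chip, anti-mouse Fc mAb was amine-coupled to a 4500 RU target and used to capture the antibodies. Their binding kinetics and affinity for N-terminally His-tagged human MARCO extracellular domain (147-520) were then measured by multi-cycle surface plasmon resonance on a Biacore T200. This was done at 25° C in 10 mM HEPES pH 7.4, 150 mM NaCl, 3 mM EDTA, 0.05% surfactant P20, with 0.625–10 nM injections, 90 s association and 600 s dissociation, and fitting in BIAevaluation 3.1.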

[7] = molecular target: T4, Mouse MARCO, full length, on cells (mouse, UniProt Q60754 1-518); assay: flow cytometry, 293T cells expressing mouse MARCO
T4 construct: whole, on cells; the cell type is named under assay; also called muMARCO; MuMARCO
T4 sequence (looked up): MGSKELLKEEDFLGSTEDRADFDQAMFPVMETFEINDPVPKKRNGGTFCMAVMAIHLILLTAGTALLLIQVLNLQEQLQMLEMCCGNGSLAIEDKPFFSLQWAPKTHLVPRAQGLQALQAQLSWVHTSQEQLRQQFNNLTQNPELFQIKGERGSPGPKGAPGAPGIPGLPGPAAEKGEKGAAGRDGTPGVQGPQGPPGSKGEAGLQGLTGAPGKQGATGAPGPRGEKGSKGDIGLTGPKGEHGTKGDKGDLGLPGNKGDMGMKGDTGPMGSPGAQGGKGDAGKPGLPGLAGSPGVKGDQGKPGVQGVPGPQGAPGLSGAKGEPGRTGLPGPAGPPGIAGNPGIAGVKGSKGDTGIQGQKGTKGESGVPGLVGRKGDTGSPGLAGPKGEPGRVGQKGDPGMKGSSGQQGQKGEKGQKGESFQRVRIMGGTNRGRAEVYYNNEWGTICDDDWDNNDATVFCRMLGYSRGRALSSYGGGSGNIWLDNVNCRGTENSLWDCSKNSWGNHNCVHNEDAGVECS

Kd [1]: 1.07 nM
Kd [2]: 1.65 nM
Kd [3]: 1.2 nM
EC50 (read off the curve) [4]: ~0.2 nM
EC50 [5]: 1.16 nM
Kd [6]: 0.51 nM
B1: PI-3015-AB (antibody, human IgG1, kappa)
heavy: not shown
light: DIQMTQSPSSLSASVGDRVTITCRASEGISNDLAWYQQKPGKAPKLLIYAASRLQSGVPSRFSGSGSGTDYTLTISSMQPEDFATYYCQQSYKYPLTFGQGTKLEIKRTVAAPSVFIFPPSDEQLKSGTASVVCLLNNFYPREAKVQWKVDNALQSGNSQESVTEQDSKDSTYSLSSTLTLSKADYEKHKVYACEVTHQGLSSPVTKSFNRGEC

binding result [7]: no binding
B2: PI-HX-3031 (antibody)
heavy: QVQLKESGPGLVQPSQTLSLTCTVSGFSLTSYHVSWVRQPPGKGLEWMGAIWTGGSIAYNSLLKSRLSISRDTSKSQVFLKMNSLQTEDTATYYCARDLSDYYSSYTSFDYWGQGVMVTVSTAETTAPSVYPLAPGTALKSNSMVTLGCLVKGYFPEPVTVTWNSGALSSGVHTFPAVLQSGLYTLTSSVTVPSSTWSSQAVTCNVAHPASSTKVDKKIVPRECNPCGCTGSEVSSVFIFPPKTKDVLTITLTPKVTCVVVDISQNDPEVRFSWFIDDVEVHTAQTHAPEKQSNSTLRSVSELPIVHRDWLNGKTFKCKVNSGAFPAPIEKSISKPEGTPRGPQVYTMAPPKEEMTQSQVSITCMVKGFYPPDIYTEWKMNGQPQENYKNTPPTMDTDGSYFLYSKLNVKKETWQQGNTFTCSVLHEGLHNHHTEKSLSHSP
light: DIQMTQSPASLSTSLGETVSIECLASEGISNDLAWYQQKSGKSPQLLIYAASRLQDGVPSRFSGSGSGTRYSLKISGMQPEDEADYFCQQSYKYPLTFGSGTKLEIKRADAAPTVSIFPPSTEQLATGGASVVCLMNNFYPRDISVKWKIDGTERRDGVLDSVTDQDSKDSTYSMSSTLSLTKADYESHNLYTCEVVHKTSSSPVVKSFNRNEC
notes: Parental rat hybridoma, rat IgG2a
